Measured values published in publication PMC4443670, “The C-terminal region of the motor protein MCAK controls its structure and activity through a conformational switch” (eLife, 2015).
Where a chain is given by its changes, count along the chain named. Names may count otherwise. “And” between values parts separate entries of the source, which are not always exact repeats. Equal entries are not always repeated. Where two headings read alike, the source gives them in different places.

How the values were obtained:
[1] = system: taxol-stabilized microtubules; assay: Microtubule depolymerisation assay; assay type: biochemical
Protocol: Microtubule depolymerization assays were performed essentially as described previously ([Hertzer et al., 2006]). MCAK was diluted to 100 nM in S-buffer containing 1 mM DTT and 2 mM Mg-ATP. For depolymerization assays of the motor domain in presence of the CT domain after GST cleavage and removal, 50 nM of motor domain and 100 nM of the CT domain were used. The microtubule depolymerization assay was initiated by the addition of 2 μM taxol-stabilized microtubules to a reaction buffer containing MCAK. Reactions were incubated at room temperature with increasing times and followed by centrifugation to separate microtubules from free tubulin. The data are represented as mean ± SD from three independent experiments.

[2] = target: taxol-stabilized microtubules; assay: Microtubule cosedimentation assay, untreated microtubules; assay type: binding; conditions: for Kd: 50 nM, modified Hill equation, at least three independent experiments, read-out: apparent Kd for microtubules
Protocol: (§1) Full-length MCAK complex was diluted in S buffer (50 mM NaCl, 20 mM Hepes pH 7.0) to 50 nM, in absence of nucleotide to prevent MCAK-dependent microtubule depolymerisation. To assemble an MCAK motor-CT domain complex, 50 nM of the motor domain and 100 nM of the CT domain were used. Microtubule binding assays were performed as described ([Cheeseman et al., 2006]) using equal volumes of taxol-stabilized microtubules in BRB80 and MCAK in S buffer. MCAK was quantified using anti-MCAK antibody against the C terminus of MCAK (709[…]720), generated by GL Biochem (Shangai) Ltd (China) or anti-His antibody to probe for the motor domain alone (GE Healthcare Lifesciences, UK). The data from at least three independent experiments were fitted to a modified Hill equation to determine the apparent Kd.

[3] = target: subtilisin-treated microtubules; assay: Microtubule cosedimentation assay, subtilisin-treated microtubules; assay type: binding; conditions: for affinity for subtilisin-treated microtubules (β-tubulin C termini removed): 50 nM full-length protein, subtilisin 10 min
Protocol: as §1
Tubulin (5 mg/ml) was first polymerized into MTs in the presence of 1 mM GTP and gradual addition of 0.05 µM, 0.5 µM and 2 µM taxol for 1 hr at 37°C. The polymerized MTs were then treated with 100 μg/ml subtilisin and incubated at 37°C for 10 min to cleave β-tubulin tails and 120 min to cleave both α- and β-tubulin tails. Each reaction was then terminated with the addition of 3 mM PMSF. DM1A (Abcam, UK) and c-terminal β-tubulin (Sigma, UK) were used to detect the α- and β-tails, respectively by western blotting. The subtilisin treated microtubules were then pelleted at 28°C in a TLA100 rotor at 80,000 rpm for 10 min and the microtubule pellets were resuspended in warm BRB80 buffer to obtain subtilisin treated microtubules. The cosedimentation assays were then performed as described before.

[4] = Analytical size-exclusion chromatography (oligomeric state / size); assay type: physicochemical
Protocol: Protein expression was induced by addition of 0.5 mM IPTG to BL21(DE3) Codon plus cells transformed with respective constructs at OD600 of 0.7–0.8 for 16 hr at 18°C. Cells were lysed by sonication in lysis buffer (50 mM Hepes, pH 7.4, 200 mM NaCl, 1 mM MgCl2, 1 mM PMSF, 1 mg/ml DNaseI, 2 mg/ml lysozyme, 10 mM Imidazole) and clarified at 20,000 rpm for 1 hr at 4°C. His-tagged and GST-tagged proteins were subsequently purified using Ni-NTA–agarose beads and glutathione-sepharose beads, respectively (GE Healthcare Life Sciences, UK)) according to the manufacturer's guidelines. MCAK constructs containing the motor domain were eluted with elution buffer (50 mM Hepes, pH 7.4, 200 mM NaCl, 1 mM MgCl2, 1 mM ATP, and 300 mM imidazole). Cleavage of the GST tag was performed using the GST-3C protease overnight at 4°C. […] Protein concentrations were determined with a combination of Bradford protein assays and densitometry of Coomassie-stained gels relative to a BSA standard. […]

[5] = Size-exclusion chromatography coupled to multi-angle light scattering (SEC-MALS); assay type: physicochemical; conditions: 100 mM HEPES pH 7.2, 150 mM NaCl
Protocol: Size-exclusion chromatography with on-line multi-angle light scattering (SEC-MALS) was performed using a GE Superdex 200 10/300 GL column on an ÄKTA FPLC system. MALS measurements were performed using a MiniDAWN in-line detector (Wyatt Technology, Santa Barbara, CA, USA). MCAK motor domain and C terminus were at 2 mg/ml in 100 mM HEPES, pH 7.2, 150 mM NaCl. Protein concentration was monitored using a UV monitor at 280 nm and a refractive index detector was set at 690 nm (Optilab DSP, Wyatt Technology, Santa Barbara, CA, USA). Data were analyzed using Astra software (Wyatt Technology, Santa Barbara, CA, USA) using the refractive index detector and a refractive index increment (dn/dc) value of 0.185 ml/g. Gel phase distribution coefficients (Kav) were determined from the equation Kav = (Ve − Vo)/(Vt − Vo), where Ve, Vo, and Vt represent the elution volume of the protein of interest, the column void volume and the total bed volume of the column, respectively.

[6] = full-length protein, absence of nucleotide, untreated microtubules

B1: motor domain: motor region of MCAK along with the neck linker region (residues 181–583), His-tagged (protein, UniProt Q99661 181-583, looked up, fragment)
chain: SANPVNSVRRKSCLVKEVEKMKNKREEKKAQNSEMRMKRAQEYDSSFPNWEFARMIKEFRATLECHPLTMTDPIEEHRICVCVRKRPLNKQELAKKEIDVISIPSKCLLLVHEPKLKVDLTKYLENQAFCFDFAFDETASNEVVYRFTARPLVQTIFEGGKATCFAYGQTGSGKTHTMGGDLSGKAQNASKGIYAMASRDVFLLKNQPCYRKLGLEVYVTFFEIYNGKLFDLLNKKAKLRVLEDGKQQVQVVGLQEHLVNSADDVIKMIDMGSACRTSGQTFANSNSSRSHACFQIILRAKGRMHGKFSLVDLAGNERGADTSSADRQTRMEGAEINKSLLALKECIRALGQNKAHTPFRESKLTQVLRDSFIGENSRTCMIATISPGISSCEYTLNTLRYAD
modifications: His tag
notes: motor region of MCAK along with the neck linker region (residues 181–583), His-tagged
microtubule depolymerase activity of motor with CT domain, with and without DTT ([1]; 50 nM motor domain, 100 nM CT domain, 2 μM taxol-stabilized microtubules): could depolymerize microtubules
Kd ([2]; motor domain alone, absence of nucleotide): 640 nM
Kd ([3]; 50 nM motor domain in motor-CT domain complex, subtilisin-treated microtubules (10 or 120 min), absence of nucleotide): 200 nM
effect of α-tubulin tail removal on affinity for microtubules lacking β-tubulin tail ([3]; 50 nM motor domain, subtilisin 120 vs 10 min): did not further modify the affinity
apparent size (gel filtration) [4]: ~45 kDa
fraction monomeric ([5]; SEC-MALS, absence of CT domain, 2 mg/ml): over 90%
Monodispersity ([5]; SEC-MALS): 1.005
measured molecular weight (MW) ([5]; SEC-MALS, Superdex 200 10/300 GL, 2 mg/ml, unit printed kDa in text, kD in figure): ~45.3 kDa
Stoke Radius ([5]; from SEC calibration curve): 3.11 nm

B2: CTE712C-bound motor: motor domain covalently bound (disulphide) to CTE712C domain (protein)
chain 1: NPVNSVRRKSCLVKEVEKMKNKREEKKAQNSEMRMKRAQEYDSSFPNWEFARMIKEFRATLECHPLTMTDPIEEHRICVCVRKRPLNKQELAKKEIDVISIPSKCLLLVHEPKLKVDLTKYLENQAFCFDFAFDETASNEVVYRFTARPLVQTIFEGGKATCFAYGQTGSGKTHTMGGDLSGKAQNASKGIYAMASRDVFLLKNQPCYRKLGLEVYVTFFEIYNGKLFDLLNKKAKLRVLEDGKQQVQVVGLQEHLVNSADDVIKMIDMGSACRTSGQTFANSNSSRSHACFQIILRAKGRMHGKFSLVDLAGNERGADTSSADRQTRMEGAEINKSLLALKECIRALGQNKAHTPFRESKLTQVLRDSFIGENSRTCMIATISPGISSCEYTLNTLRYAD
chain 2: VIKALRLAMQLECQASRQISSKKRPQ
modifications: disulphide bridge of Cysteine 287 to Cysteine 712 of the CT_(E712C) domain | disulphide bridge of Cysteine 712 to Cysteine 287 of the motor domain; left off: His tag, end not stated, kept | GST, end n
detection of CT domain in microtubule-bound pellet / supernatant ([2]; western blot, 50 nM motor domain, with and without DTT): remained in the supernatant

B3: MCAKS715E: full-length MCAK S715E in which the CT domain cannot bind to the motor domains (protein)
chain: MAMDSSLQARLFPGLAIKIQRSNGLIHSANVRTVNLEKSCVSVEWAEGGATKGKEIDFDDVAAINPELLQLLPLHPKDNLPLQENVTIQKQKRRSVNSKIPAPKESLRSRSTRMSTVSELRITAQENDMEVELPAAANSRKQFSVPPAPTRPSCPAVAEIPLRMVSEEMEEQVHSIRGSSSANPVNSVRRKSCLVKEVEKMKNKREEKKAQNSEMRMKRAQEYDSSFPNWEFARMIKEFRATLECHPLTMTDPIEEHRICVCVRKRPLNKQELAKKEIDVISIPSKCLLLVHEPKLKVDLTKYLENQAFCFDFAFDETASNEVVYRFTARPLVQTIFEGGKATCFAYGQTGSGKTHTMGGDLSGKAQNASKGIYAMASRDVFLLKNQPCYRKLGLEVYVTFFEIYNGKLFDLLNKKAKLRVLEDGKQQVQVVGLQEHLVNSADDVIKMIDMGSACRTSGQTFANSNSSRSHACFQIILRAKGRMHGKFSLVDLAGNERGADTSSADRQTRMEGAEINKSLLALKECIRALGQNKAHTPFRESKLTQVLRDSFIGENSRTCMIATISPGISSCEYTLNTLRYADRVKELSPHSGPSGEQLIQMETEEMEACSNGALIPGNLSKEEEELSSQMSSFNEAMTQIRELEEKAMEELKEIIQQGPDWLELSEMTEQPDYDLETFVNKAESALAQQAKHFSALRDVIKALRLAMQLEEQAERQISSKKRPQ
modifications: left off: His tag, end not stated, state not stated
microtubule depolymerase activity, full-length ([1]; 100 nM protein, 2 μM microtubules, 1 mM DTT, 2 mM Mg-ATP, room temperature, three experiments): appeared similar to wild type MCAK
Kd [2, 6]: ~200 nM and 200 nM
affinity for subtilisin-treated microtubules (β-tubulin C termini removed) ([3]; absence of nucleotide): remained comparably high

B4: MCAKE712C: full-length MCAK with Glu712 mutated to cysteine (protein)
chain: B3 chain with E712C, E715S
modifications: left off: His tag, end not stated, state not stated
notes: full-length MCAK with Glu712 mutated to cysteine
microtubule binding, absence of DTT (oxidizing) ([2]; full-length protein 50 nM, absence of DTT and nucleotide): the affinity of MCAKE712C for microtubules was reduced and a fraction of MCAKE712C did not bind microtubules, even at saturating microtubule concentrations
microtubule binding, presence of DTT ([2]; full-length protein 50 nM, with DTT, absence of nucleotide): bound to microtubules similarly to wild type full-length MCAK
gel filtration profile [4]: eluted as one complex, of similar size to MCAK

B5: MCAK: full-length wild type MCAK, kinesin-13 microtubule depolymerase (protein)
chain: B3 chain with E715S
modifications: left off: His tag, end not stated, state not stated
notes: full-length wild type MCAK, kinesin-13 microtubule depolymerase
Kd [2, 6]: ~1500 nM and 1500 nM
affinity for subtilisin-treated microtubules (β-tubulin C termini removed) ([3]; absence of nucleotide): increased the affinity
